Measurements from publication PMC10286459, “The development of an anti-cancer peptide M1-21 targeting transcription factor FOXM1” (Cell & Bioscience, 2023).
Non-standard residues stand in square brackets, D forms with d. No end group written: not given here.

Key:
endogenous FOXM1 protein = biological target: T1, endogenous FOXM1 protein (human (endogenous in 293T and …, UniProt Q08050 1-763)); test: cell-based or functional assay
T1 sequence (looked up): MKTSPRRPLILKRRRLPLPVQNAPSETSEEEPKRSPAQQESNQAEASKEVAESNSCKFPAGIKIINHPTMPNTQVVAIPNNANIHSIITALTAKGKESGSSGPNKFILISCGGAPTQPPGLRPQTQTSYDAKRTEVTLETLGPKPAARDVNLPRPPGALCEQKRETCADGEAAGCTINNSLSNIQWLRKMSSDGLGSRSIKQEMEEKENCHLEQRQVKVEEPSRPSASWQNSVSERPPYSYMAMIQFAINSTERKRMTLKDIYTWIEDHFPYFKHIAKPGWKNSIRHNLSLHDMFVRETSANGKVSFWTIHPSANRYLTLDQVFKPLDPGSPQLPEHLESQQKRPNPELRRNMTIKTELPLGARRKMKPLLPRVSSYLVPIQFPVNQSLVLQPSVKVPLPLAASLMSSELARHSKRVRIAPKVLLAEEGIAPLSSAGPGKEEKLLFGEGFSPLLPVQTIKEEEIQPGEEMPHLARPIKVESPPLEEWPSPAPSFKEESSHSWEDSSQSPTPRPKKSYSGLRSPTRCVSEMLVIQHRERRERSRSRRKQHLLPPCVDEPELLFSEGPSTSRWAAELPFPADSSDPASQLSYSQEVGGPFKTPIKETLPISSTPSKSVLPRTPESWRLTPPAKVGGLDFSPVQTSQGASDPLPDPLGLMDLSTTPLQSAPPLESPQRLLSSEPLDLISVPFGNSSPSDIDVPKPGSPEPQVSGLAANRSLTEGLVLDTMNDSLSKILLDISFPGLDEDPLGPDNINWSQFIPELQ

GFP-FOXM1(688-748) = biological target: T2, GFP-FOXM1(688-748) (human); test: MST
T2 construct: also called GFP-M1(688–748); FOXM1 C-terminus
T2 sequence (Q08050 688-748, looked up): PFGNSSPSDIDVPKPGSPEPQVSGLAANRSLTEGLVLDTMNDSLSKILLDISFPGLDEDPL

GFP-FOXM1(232-332) = biological target: T3, GFP-FOXM1(232-332) (human, UniProt Q08050-3 232-332); test: MST
T3 construct: also called GFP-M1(232–332); FOXM1 DBD
T3 sequence (looked up): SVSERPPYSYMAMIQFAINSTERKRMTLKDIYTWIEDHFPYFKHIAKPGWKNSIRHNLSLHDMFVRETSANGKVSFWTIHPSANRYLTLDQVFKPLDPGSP

GFP-FOXM1 = biological target: T4, GFP-FOXM1 (human, UniProt Q08050-3 1-801); test: MST
T4 sequence (looked up): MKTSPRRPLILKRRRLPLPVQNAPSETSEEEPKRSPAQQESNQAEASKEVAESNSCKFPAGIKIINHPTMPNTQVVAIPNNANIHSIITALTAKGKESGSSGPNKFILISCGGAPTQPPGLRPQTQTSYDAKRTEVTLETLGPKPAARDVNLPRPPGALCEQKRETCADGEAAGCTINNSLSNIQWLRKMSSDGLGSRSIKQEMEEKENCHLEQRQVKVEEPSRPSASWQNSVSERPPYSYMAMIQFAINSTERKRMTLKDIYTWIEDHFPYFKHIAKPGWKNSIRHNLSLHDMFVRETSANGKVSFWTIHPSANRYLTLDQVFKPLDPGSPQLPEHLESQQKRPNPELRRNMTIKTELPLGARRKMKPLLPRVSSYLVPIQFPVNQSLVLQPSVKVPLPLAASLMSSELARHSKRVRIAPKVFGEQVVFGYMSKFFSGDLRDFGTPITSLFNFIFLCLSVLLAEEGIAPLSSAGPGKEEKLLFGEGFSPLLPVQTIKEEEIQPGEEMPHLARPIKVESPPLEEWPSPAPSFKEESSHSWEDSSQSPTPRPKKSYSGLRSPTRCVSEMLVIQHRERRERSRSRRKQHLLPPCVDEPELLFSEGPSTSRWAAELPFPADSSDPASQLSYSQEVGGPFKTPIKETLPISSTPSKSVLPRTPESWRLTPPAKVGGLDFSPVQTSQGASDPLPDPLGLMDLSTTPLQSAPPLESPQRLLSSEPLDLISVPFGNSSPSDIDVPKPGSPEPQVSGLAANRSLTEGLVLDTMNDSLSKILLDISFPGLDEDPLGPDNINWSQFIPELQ

GFP-FOXM1(1-138) = biological target: T5, GFP-FOXM1(1-138) (human, UniProt Q08050 1-138); test: MST
T5 construct: also called GFP-M1(1-138); FOXM1 N-terminal domain
T5 sequence (looked up): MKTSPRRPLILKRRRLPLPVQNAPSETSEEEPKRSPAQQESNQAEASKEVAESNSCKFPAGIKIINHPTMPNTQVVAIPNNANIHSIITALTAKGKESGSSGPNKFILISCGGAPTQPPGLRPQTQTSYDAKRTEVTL

B1: M1-21 (peptide)
chain: [dQ][dT][dQ][dP][dR][dL]G[dP][dP][dQ][dT][dP][dA]GG[dC][dS][dI][dL][dI][dF]
modifications: not fully specified; also: retro-inverso, chain direction relative to parent not given here
Endogenous FOXM1 protein
  IC50 of cell viability, MDA-MB-231 cells, 48 h (trypan blue): 33.8 µM
GFP-FOXM1(688-748)
  Kd: 1.79 µM
GFP-FOXM1(232-332)
  Kd: 5.71 µM
GFP-FOXM1
  Kd: 12.5 µM
GFP-FOXM1(1-138)
  Kd: 6.27 µM
